These results are taken from article PMC5336481 (Nature structural & molecular biology, 2017).

Usually stoichiometry N stands for the number of molecules, sites or subunits per partner or assembly.

Series [1] deals with full-length C. elegans TRPML1 (CUP-5), WT (C. elegans). The series can be described thus: cryo-EM structure.
The target in series [2] is T1, human TRPML1 protein (SDS-PAGE, data not shown) (human), Q9GZU1.
T1 chain: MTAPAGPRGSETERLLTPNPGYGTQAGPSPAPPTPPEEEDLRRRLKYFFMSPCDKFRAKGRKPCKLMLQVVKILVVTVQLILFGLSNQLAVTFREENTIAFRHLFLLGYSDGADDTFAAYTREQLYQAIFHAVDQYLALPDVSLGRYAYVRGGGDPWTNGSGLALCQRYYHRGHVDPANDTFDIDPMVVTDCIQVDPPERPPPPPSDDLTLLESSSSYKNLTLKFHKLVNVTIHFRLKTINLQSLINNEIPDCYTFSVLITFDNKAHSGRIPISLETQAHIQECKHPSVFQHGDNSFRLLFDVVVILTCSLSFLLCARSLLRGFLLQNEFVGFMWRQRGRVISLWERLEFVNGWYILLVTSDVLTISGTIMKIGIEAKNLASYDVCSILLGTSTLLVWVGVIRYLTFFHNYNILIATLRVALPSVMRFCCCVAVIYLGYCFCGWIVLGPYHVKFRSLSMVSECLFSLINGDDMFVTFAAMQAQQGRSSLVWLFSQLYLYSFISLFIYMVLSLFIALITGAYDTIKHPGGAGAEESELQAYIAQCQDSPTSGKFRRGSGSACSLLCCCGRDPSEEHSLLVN
The series is described as follows: reducing SDS-PAGE. The settings on record: remark: other sources report otherwise.

The series “crystal structure” deals with the molecule itself. The series is described as follows: crystal structure.

Take “full-length C. elegans TRPML1 (CUP-5), WT (natural protein)”: in series [1], the stoichiometry N worked out at 4.

B1: human TRPML1 protein (SDS-PAGE, data not shown), Q9GZU1 1-580 (natural protein)
chain: T1 chain
The molecule B1 registered a stoichiometry N in series [2] of 4.

B2: human TRPML1 I-II linker (G84-S296) (domain or fragment, UniProt Q9GZU1 84-296, looked up)
chain: GLSNQLAVTFREENTIAFRHLFLLGYSDGADDTFAAYTREQLYQAIFHAVDQYLALPDVSLGRYAYVRGGGDPWTNGSGLALCQRYYHRGHVDPANDTFDIDPMVVTDCIQVDPPERPPPPPSDDLTLLESSSSYKNLTLKFHKLVNVTIHFRLKTINLQSLINNEIPDCYTFSVLITFDNKAHSGRIPISLETQAHIQECKHPSVFQHGDNS
As for B2, in the series “crystal structure”, the “stoichiometry N” value was found to be 4.
